Test results as given in publication PMC10602865, “Cleavage kinetics of human mitochondrial RNase P and contribution of its non-nuclease subunits”.

T1: SDR5C1 (MRPP2, HSD17B10) (Homo sapiens, UniProt Q99714 1-261)
T1 sequence: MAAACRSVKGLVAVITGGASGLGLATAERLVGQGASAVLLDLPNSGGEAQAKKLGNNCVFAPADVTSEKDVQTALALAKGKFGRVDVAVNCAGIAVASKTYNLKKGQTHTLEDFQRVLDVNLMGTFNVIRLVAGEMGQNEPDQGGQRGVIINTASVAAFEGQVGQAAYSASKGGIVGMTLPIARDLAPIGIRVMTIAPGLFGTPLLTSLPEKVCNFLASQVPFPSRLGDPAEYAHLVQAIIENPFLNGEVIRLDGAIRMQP

T2: TRMT10C (MRPP1) (Homo sapiens, UniProt Q7L0Y3 40-403)
T2 sequence: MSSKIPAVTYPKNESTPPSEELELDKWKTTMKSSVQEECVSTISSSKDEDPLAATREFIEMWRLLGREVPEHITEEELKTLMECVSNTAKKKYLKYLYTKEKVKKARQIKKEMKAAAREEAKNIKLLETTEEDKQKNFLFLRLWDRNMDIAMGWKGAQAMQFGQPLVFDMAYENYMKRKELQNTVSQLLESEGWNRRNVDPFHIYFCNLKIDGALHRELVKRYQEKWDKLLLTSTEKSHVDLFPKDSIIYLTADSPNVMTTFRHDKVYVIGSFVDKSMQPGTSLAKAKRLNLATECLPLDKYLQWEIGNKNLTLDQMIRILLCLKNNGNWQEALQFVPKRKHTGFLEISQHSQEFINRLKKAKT

T3: TRMT10C (MRPP1);SDR5C1 (MRPP2, HSD17B10) (Homo sapiens;Homo sapiens, UniProt Q7L0Y3;Q99714 40-403;1-261, |)
T3 sequence 1: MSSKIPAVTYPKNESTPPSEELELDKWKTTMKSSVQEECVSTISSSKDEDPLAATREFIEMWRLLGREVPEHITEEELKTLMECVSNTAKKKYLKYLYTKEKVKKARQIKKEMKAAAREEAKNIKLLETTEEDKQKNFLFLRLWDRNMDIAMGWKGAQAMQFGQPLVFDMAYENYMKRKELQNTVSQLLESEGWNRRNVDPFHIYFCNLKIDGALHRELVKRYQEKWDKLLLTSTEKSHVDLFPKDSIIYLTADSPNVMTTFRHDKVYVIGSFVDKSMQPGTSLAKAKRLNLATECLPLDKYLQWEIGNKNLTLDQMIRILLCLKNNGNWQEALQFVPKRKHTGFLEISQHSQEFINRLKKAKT
T3 sequence 2: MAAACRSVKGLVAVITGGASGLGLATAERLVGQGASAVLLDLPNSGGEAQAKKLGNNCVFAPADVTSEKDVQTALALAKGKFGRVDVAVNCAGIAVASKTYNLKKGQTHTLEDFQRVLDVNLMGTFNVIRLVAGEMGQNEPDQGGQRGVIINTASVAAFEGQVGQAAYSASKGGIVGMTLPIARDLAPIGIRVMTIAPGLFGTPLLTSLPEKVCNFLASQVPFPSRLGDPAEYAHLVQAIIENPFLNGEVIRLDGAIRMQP

T4: PRORP (MRPP3) (Homo sapiens, UniProt O15091 46-583)
T4 sequence: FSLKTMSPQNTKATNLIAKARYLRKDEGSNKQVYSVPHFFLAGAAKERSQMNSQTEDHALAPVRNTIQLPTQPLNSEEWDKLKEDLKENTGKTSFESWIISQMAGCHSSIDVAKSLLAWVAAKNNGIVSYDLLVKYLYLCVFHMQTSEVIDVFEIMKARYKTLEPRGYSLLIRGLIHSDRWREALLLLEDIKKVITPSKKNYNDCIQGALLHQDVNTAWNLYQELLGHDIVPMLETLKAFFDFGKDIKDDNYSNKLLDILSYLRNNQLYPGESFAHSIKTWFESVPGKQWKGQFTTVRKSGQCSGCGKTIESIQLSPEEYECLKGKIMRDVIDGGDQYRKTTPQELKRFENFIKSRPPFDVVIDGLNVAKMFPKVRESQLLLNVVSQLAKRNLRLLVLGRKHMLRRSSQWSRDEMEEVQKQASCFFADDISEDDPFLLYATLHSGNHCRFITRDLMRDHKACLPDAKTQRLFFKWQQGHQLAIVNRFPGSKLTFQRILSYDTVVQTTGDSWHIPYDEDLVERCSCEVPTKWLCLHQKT


How the values were obtained:
[1] = target: T1, SDR5C1 (MRPP2, HSD17B10); experiment: BLI; 4.5 mM Mg2+; up to 1 uM SDR5C1; BLI (BLItz, streptavidin sensors): 50 mM Tris-Cl pH 8, 20 mM NaCl, 2 mM DTT, 20 ug/ml BSA, 0.5 U/ul RNase inhibitor, 0.05% Tween-20, with (Lys) or without 4.5 mM MgCl2, 21 C; conditions: protein: recombinant; tags: N-terminal His6; chain copies: 4; label: 3' biotin (pCp-biotin); tRNA cloverleaf
[2] = target: T2, TRMT10C (MRPP1); experiment: BLI; 4.5 mM Mg2+; BLI (BLItz, streptavidin sensors): 50 mM Tris-Cl pH 8, 20 mM NaCl, 2 mM DTT, 20 ug/ml BSA, 0.5 U/ul RNase inhibitor, 0.05% Tween-20, with (Lys) or without 4.5 mM MgCl2, 21 C; conditions: protein: recombinant; tags: C-terminal myc-His6; chain copies: 2; label: 3' biotin (pCp-biotin); tRNA cloverleaf
[3] = target: T3, TRMT10C (MRPP1);SDR5C1 (MRPP2, HSD17B10); experiment: as above; conditions: protein: recombinant;recombinant; tags: C-terminal myc-His6;N-terminal His6; copies: 1;4; label: 3' biotin (pCp-biotin); tRNA cloverleaf
[4] = target: T4, PRORP (MRPP3); experiment: as above; conditions: protein: recombinant; tags: C-terminal His6; label: 3' biotin (pCp-biotin); tRNA cloverleaf
[5] = target: T1, SDR5C1 (MRPP2, HSD17B10); experiment: BLI; no Mg2+; up to 1 uM SDR5C1; BLI (BLItz, streptavidin sensors): 50 mM Tris-Cl pH 8, 20 mM NaCl, 2 mM DTT, 20 ug/ml BSA, 0.5 U/ul RNase inhibitor, 0.05% Tween-20, with (Lys) or without 4.5 mM MgCl2, 21 C; conditions: protein: recombinant; tags: N-terminal His6; chain copies: 4; label: 3' biotin (pCp-biotin); tRNA cloverleaf
[6] = target: T2, TRMT10C (MRPP1); experiment: BLI; no Mg2+; BLI (BLItz, streptavidin sensors): 50 mM Tris-Cl pH 8, 20 mM NaCl, 2 mM DTT, 20 ug/ml BSA, 0.5 U/ul RNase inhibitor, 0.05% Tween-20, with (Lys) or without 4.5 mM MgCl2, 21 C; conditions: protein: recombinant; tags: C-terminal myc-His6; chain copies: 2; label: 3' biotin (pCp-biotin); tRNA cloverleaf
[7] = target: T3, TRMT10C (MRPP1);SDR5C1 (MRPP2, HSD17B10); experiment: as above; conditions: protein: recombinant;recombinant; tags: C-terminal myc-His6;N-terminal His6; copies: 1;4; label: 3' biotin (pCp-biotin); tRNA cloverleaf
[8] = target: T4, PRORP (MRPP3); experiment: as above; conditions: protein: recombinant; tags: C-terminal His6; label: 3' biotin (pCp-biotin); tRNA cloverleaf

Binder | binding result [1] | Kd [2] | Kd [3] | Kd [4] | binding result [5] | Kd [6] | Kd [7] | Kd [8]
pre-tRNALys, 3'-biotinylated (structured_RNA, splint ligation of synthetic RNA (15 nt 5' flank + tRNA nt 1-8) to transcript of 8303-8375; 3' pCp-biotin adds a C) RNA: ACCCCCUCUAGAGCCCACUGUAAAGCUAACUUAGCAUUAACCUUUUAAGUUAAAGAUUAAGAGAACCAACACCUCUUUACAGUGAAAUGCCCCAAC | no binding | 30 nM | 4 nM | 26 nM | – | – | – | –
pre-tRNAVal, 3'-biotinylated (structured_RNA, splint ligation of synthetic RNA (15 nt 5' flank + tRNA nt 1-8) to transcript of 1610-1702; 3' pCp-biotin adds a C) RNA: UGCACUUGGACGAACCAGAGUGUAGCUUAACACAAAGCACCCAACUUACACUUAGGAGAUUUCAACUUAACUUGACCGCUCUGAGCUAAACCUAGCCCCAAACCCACUCCACCUUA | – | – | – | – | no binding | 20 nM | 13 nM | 18 nM
